The chains are these.
B1: Centrosomal P4.1-associated protein (Homo sapiens), Q9HC77 (parent)
chain: MFLMPTSSELNSGQNFLTQWMTNPSRAGVILNRGFPILEADKEKRAAVDISTSFPIKGTHFSDSFSFINEEDSLLEEQKLESNNPYKPQSDKSETHTAFPCIKKGPQVAACHSAPGHQEENKNDFIPDLASEFKEGAYKDPLFKKLEQLKEVQQKKQEQLKRQQLEQLQRLMEEQEKLLTMVSGQCTLPGLSLLPDDQSQKHRSPGNTTTGERATCCFPSYVYPDPTQEETYPSNILSHEQSNFCRTAHGDFVLTSKRASPNLFSEAQYQEAPVEKNNLKEENRNHPTGESILCWEKVTEQIQEANDKNLQKHDDSSEVANIEERPIKAAIGERKQTFEDYLEEQIQLEEQELKQKQLKEAEGPLPIKAKPKQPFLKRGEGLARFTNAKSKFQKGKESKLVTNQSTSEDQPLFKMDRQQLQRKTALKNKELCADNPILKKDSKARTKSGSVTLSQKPKMLKCSNRKSLSPSGLKIQTGKKCDGQFRDQIKFENKVTSNNKENVTECPKPCDTGCTGWNKTQGKDRLPLSTGPASRLAAKSPIRETMKESESSLDVSLQKKLETWEREKEKENLELDEFLFLEQAADEISFSSNSSFVLKILERDQQICKGHRMSSTPVKAVPQKTNPADPISHCNRSEDLDHTAREKESECEVAPKQLHSLSSADELREQPCKIRKAVQKSTSENQTEWNARDDEGVPNSDSSTDSEEQLDVTIKPSTEDRERGISSREDSPQVCDDKGPFKDTRTQEDKRRDVDLDLSDKDYSSDESIMESIKHKVSEPSRSSSLSLSKMDFDDERTWTDLEENLCNHDVVLGNESTYGTPQTCYPNNEIGILDKTIKRKIAPVKRGEDLSKSRRSRSPPTSELMMKFFPSLKPKPKSDSHLGNELKLNISQDQPPGDNARSQVLREKIIELETEIEKFKAENASLAKLRIERESALEKLRKEIADFEQQKAKELARIEEFKKEEMRKLQKERKVFEKYTTAARTFPDKKEREEIQTLKQQIADLREDLKRKETKWSSTHSRLRSQIQMLVRENTDLREEIKVMERFRLDAWKRAEAIESSLEVEKKDKLANTSVRFQNSQISSGTQVEKYKKNYLPMQGNPPRRSKSAPPRDLGNLDKGQAASPREPLEPLNFPDPEYKEEEEDQDIQGEISHPDGKVEKVYKNGCRVILFPNGTRKEVSADGKTITVTFFNGDVKQVMPDQRVIYYYAAAQTTHTTYPEGLEVLHFSSGQIEKHYPDGRKEITFPDQTVKNLFPDGQEESIFPDGTIVRVQRDGNKLIEFNNGQRELHTAQFKRREYPDGTVKTVYANGHQETKYRSGRIRVKDKEGNVLMDTEL
partner: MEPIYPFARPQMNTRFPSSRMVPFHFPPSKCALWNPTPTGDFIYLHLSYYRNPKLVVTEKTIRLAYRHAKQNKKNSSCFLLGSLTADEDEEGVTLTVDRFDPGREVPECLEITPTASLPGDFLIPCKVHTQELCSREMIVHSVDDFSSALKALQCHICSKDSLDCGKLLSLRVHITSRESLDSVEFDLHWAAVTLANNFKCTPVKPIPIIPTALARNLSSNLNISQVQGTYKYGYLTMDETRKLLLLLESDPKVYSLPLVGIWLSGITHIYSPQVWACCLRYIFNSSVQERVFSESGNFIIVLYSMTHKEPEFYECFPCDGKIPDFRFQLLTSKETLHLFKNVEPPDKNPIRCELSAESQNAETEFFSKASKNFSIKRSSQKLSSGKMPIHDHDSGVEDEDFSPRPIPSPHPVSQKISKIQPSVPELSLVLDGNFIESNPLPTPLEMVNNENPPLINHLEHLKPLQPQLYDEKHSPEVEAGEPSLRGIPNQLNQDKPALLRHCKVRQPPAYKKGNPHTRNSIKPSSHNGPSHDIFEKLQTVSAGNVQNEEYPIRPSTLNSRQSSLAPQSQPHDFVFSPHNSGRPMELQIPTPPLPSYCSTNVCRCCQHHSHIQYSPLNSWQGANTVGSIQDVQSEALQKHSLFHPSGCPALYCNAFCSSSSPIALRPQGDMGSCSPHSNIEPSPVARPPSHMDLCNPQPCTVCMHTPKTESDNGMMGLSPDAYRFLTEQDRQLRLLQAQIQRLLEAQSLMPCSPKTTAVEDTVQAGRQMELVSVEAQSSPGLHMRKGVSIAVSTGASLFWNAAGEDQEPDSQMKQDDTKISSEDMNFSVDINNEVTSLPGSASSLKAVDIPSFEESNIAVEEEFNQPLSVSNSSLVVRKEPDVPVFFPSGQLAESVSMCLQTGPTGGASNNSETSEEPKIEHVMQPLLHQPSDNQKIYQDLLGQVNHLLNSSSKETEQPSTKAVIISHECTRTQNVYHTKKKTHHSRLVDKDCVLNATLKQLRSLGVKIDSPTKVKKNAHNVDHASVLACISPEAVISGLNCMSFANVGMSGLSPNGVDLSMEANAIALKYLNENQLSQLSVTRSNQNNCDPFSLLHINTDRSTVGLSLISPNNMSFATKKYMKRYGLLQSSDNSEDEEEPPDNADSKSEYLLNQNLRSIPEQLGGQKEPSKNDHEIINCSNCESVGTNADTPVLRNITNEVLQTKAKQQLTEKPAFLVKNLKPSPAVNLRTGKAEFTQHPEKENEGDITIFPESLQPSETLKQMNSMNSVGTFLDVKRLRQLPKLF

One experiment covers variants of B1. The settings on record: with stil_human STIL.
With E1235V, the “effect of a mutation on the interaction” value was “decreasing interaction”.

The next experiment covers variants of B1. The conditions noted are these: with stil_human STIL. This is another data set of the same source.
For the variant E1235V, the “effect of a mutation on the interaction” value is reported as “disrupting interaction”.

The record behind these values is IntAct's records for PubMed 22020124.
